Test results as given in the supplement of paper PMC10567573.

B1: SPDEF (parent)
chain: FQELAGKELCAMSEEQFRQRSPLG
B2: LOC100129726 (parent)
chain: VHTGCHKKLGPEARRPRTRWGKN

Variants of: B1
Experiment: protein stability index of a GFP-peptide fusion (GPS, HEK-293T) (PSI 1-6); higher = more stable
Conditions: c terminus: a fixed tail appended
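Note: lentivirally expressed fusions sorted by FACS into six bins by GFP to DsRed ratio, PSI derived from sequencing read proportions per bin multiplied by bin number.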

Protein stability index of substitutions, site by site:
L23: I 2.9 | T 2.77 | P 3.25 | Y 2.59 | C 2.63 | R 3.24 | G 3.31 | H 3.18 | N 3.46 | K 3.21 | A 3.02 | E 3.48 | F 2.78 | Q 3.58 | D 2.8 | V 3.09 | M 2.84 | W 1.69 | S 3.16
P22: H 3.45 | S 2.92 | N 2.59 | L 2.88 | K 2.77 | M 2.56 | I 2.42 | R 2.53 | W 1.75 | T 2.63 | V 2.87 | Q 2.74 | Y 2.2
G24: I 2.1 | T 2.76 | E 2.56 | K 3.44 | C 2.49 | Q 2.44 | M 2.78 | P 2.89 | N 2.72 | H 2.44 | D 3.14 | R 2.42 | L 2.67 | F 2.05 | V 2.43 | Y 2.12 | S 2.74 | A 2.94 | W 1.93

Variants of: B2
Experiment: as above
Conditions: c terminus: native

Protein stability index: each site, then its substitutions
R19: D 5.13 | H 2.59 | K 1.49 | F 2.3
K22: T 2.93
G4: N 1.01 | F 2.72
W20: T 4.15 | F 2.87 | A 3.77 | G 1.33 | M 3.15 | I 3.89 | H 2.02
T3: D 3.27 | Y 1.01
H2: N 2.5 | P 2.05 | Q 2.44 | R 4 | W 1.38 | G 2.38 | K 1.94 | T 1.49 | Y 1.85
R15: Y 2.06 | L 1.7 | E 2.63 | F 3.27
E12: F 1.23 | Y 2.69 | V 1.23 | K 1.01
L9: V 2.02 | Q 2.72
K7: H 2.33 | E 1.87 | V 1.08
A13: F 2.49 | W 2.94 | E 2.55
G21: N 4.39 | H 4.34 | P 4.47 | L 3.56 | K 4.43 | I 2.85 | W 2.69
H6: K 1.38 | E 1.41 | M 2.12 | A 1.63 | S 1.85
P16: K 3.74 | N 3.05 | E 1.8
R17: C 1.93 | P 4.37 | Q 1.01 | L 1.7 | G 2.75 | T 2.59 | I 1.98
K8: P 2.52 | I 1.37 | C 1.65 | S 2.25 | M 2.25 | E 1.63
R14: C 2.81 | Y 3 | F 2.72 | H 2.71 | V 3.24 | E 3.01
T18: G 3.94 | Y 2.37 | D 3.96 | S 2.69 | M 2 | E 3.94
V1: C 2.12 | L 1.84 | I 2.54 | H 2.43 | M 1.73 | E 2.96
N23: L 1.42 | W 2.27 | S 1.74 | C 1.61
G10: Y 1.29 | A 3.09 | F 1.66 | P 3.1 | M 1.61 | V 1.39 | K 2.05
P11: Y 2.17 | W 1.46 | V 2.25 | T 2.67 | K 2.05 | R 1.01 | D 2.18 | M 2.37 | S 1.53
C5: T 2.35 | V 2.93 | W 1.2 | M 2.41 | A 2.57 | R 2.29 | N 1.59 | Q 1.54 | F 1.85
